Measured values reported in patent US20160032014A1 (Amgen, published 2016).

B1: 20D12 (antibody, human IgG2, lambda, V domains shown)
VH: QVQLQQWGAGLLKPSETLSLTCAVSGGSFRAYYWNWIRQPPGKGLEWIGEINHSGRTDYNPSLKSRVTISVDTSKNQFSLKLSSVTAADTAVYYCARGQLVPFDYWGQGTLVTVSS
VL: not shown
notes: tested as hybridoma supernatant
B2: 19A12 (antibody, human IgG2, kappa, V domains shown)
VH: QVQLVESGGGVVQPGRSLRLSCAASGFTFSSYGMHWVRQAPGKGLEWVAVIWYDGSNKYYADSVKGRFTISRDNSKNTLYLQMNSLRAEDTAVYYCVRDRGLDWGQGTLVTVSS
VL: not shown
notes: as for B1
B3: SS-15005 (antibody, IgG2, V domains shown)
VH: EVQLLESGGGLVQPGGSLRLSCAASGFTFSSYAMNWVRQAPGKGLEWVSTISGSGGNTYYADSVKGRFTISRDNSKNTLYLQMNSLRAEDTAVYYCAKKFVLMVYAMLDYWGQGTLVTVSS
VL: DIQMTQSPSSLSASVGDRVTITCRASQSISIYLNWYQQKPGKAPYLLIYAAASLQSGVPSRFSGSGSGTDFTLTISSLQPEDFATYYCQQSYSAPITFGQGTRLEIKR
notes: also called 25G4
B4: 25B5 (antibody, human IgG2, lambda, V domains shown)
VH: QIQLVQSGAEVKKPGASVKVSCKASGYTLTSYGISWVRQAPGQGLEWMGWISFYNGNTNYAQKVQGRVTMTTDTSTSTVYMELRSLRSDDTAVYFCARGYGMDVWGQGTTVTVSS
VL: QSALTQPASVSGSPGQSITISCTGTSSDVGGYNSVSWYQQHPGKPPKLMIYEVSNRPSGISNRFSGSKSGNTASLTISGLQAEDEADYFCSSYTSTSMVFGGGTKLAVLR
notes: as for B1
B5: 13G9 (antibody, human IgG2, lambda, V domains shown)
VH: QVQLVQSGAEVTKPGASVKVSCKASGYTFTSYGISWVRQAPGQGLEWMGWISVYKGNTNYAQKLQGRVTMTTDTSTSTAYMELRSLRSDDTAVYYCARNYQIFSFDYWGQGTLVTVSS
VL: QSVLTQPPSVSGAPGQRVTISCTGSRSNIGAGYDVNWYQQLPGTAPKLLIYGNSNRPSGVPDRFSGSKSGTSASLVITGLQAEDEADYYCQSYDSNLSGSVFGGGTKLTVLG
notes: as for B1

How the values were obtained:
[1] = molecular target: T1, human PCSK9 (self-cleaved, mature, secreted PCSK9 comprising amino acids 31 to 692 of SEQ ID NO: 2) (human, UniProt Q8NBP7 31-692, biotinylated in the ELISAs); assay: ELISA pH 7.4, sup 1:625, expt 1
T1 construct: Limits 31-692 are stated for the immunogen; the assays only say human PCSK9; also called huPCSK9; rhu PCSK9

[2] = molecular target: T1, human PCSK9 (self-cleaved, mature, …); assay: ELISA pH 6, sup 1:125, expt 1
[3] = molecular target: T1, human PCSK9 (self-cleaved, mature, …); assay: ELISA pH 7.4, sup 1:625, expt 2
[4] = molecular target: T1, human PCSK9 (self-cleaved, mature, …); assay: ELISA, sup 1:125, expt 2
[5] = molecular target: T2, human D374Y PCSK9 (human, UniProt Q8NBP7 31-692, limits assumed, biotinylated in the blocking ELISA); assay: ELISA, blocking of biotin-D374Y PCSK9 binding to LDLR, expt. #1
T2 construct: also called D374Y PCSK9 mutant; biotinylated human D374Y PCSK9

[6] = molecular target: T1, human PCSK9 (self-cleaved, mature, …); assay: ELISA pH 6, sup 1:125, expt 2
[7] = molecular target: T1, human PCSK9 (self-cleaved, mature, …); assay: ELISA, supernatant on captured biotin-PCSK9, late primary screen
[8] = molecular target: T2, human D374Y PCSK9; assay: ELISA, blocking of biotin-D374Y PCSK9 binding to LDLR, expt. #2
[9] = molecular target: T1, human PCSK9 (self-cleaved, mature, …); assay: ELISA, supernatant on captured biotin-PCSK9, early primary screen
[10] = molecular target: T1, human PCSK9 (self-cleaved, mature, …); assay: ELISA pH 6, sup 1:625, expt 2
[11] = molecular target: T1, human PCSK9 (self-cleaved, mature, …); assay: ELISA pH 7.4, sup 1:125, expt 2
[12] = molecular target: T1, human PCSK9 (self-cleaved, mature, …); assay: ELISA pH 7.4, sup 1:125, expt 1
[13] = molecular target: T1, human PCSK9 (self-cleaved, mature, …); assay: ELISA, sup 1:625, expt 1
[14] = molecular target: T1, human PCSK9 (self-cleaved, mature, …); assay: ELISA, sup 1:125, expt 1
[15] = molecular target: T1, human PCSK9 (self-cleaved, mature, …); assay: ELISA pH 6, sup 1:625, expt 1
[16] = molecular target: T1, human PCSK9 (self-cleaved, mature, …); assay: ELISA, sup 1:625, expt 2
[17] = molecular target: T1, human PCSK9 (self-cleaved, mature, …); assay: solution equilibrium, KinExA or BIAcore, pH 7.4
[18] = molecular target: T1, human PCSK9 (self-cleaved, mature, …); assay: solution equilibrium, BIAcore, pH 5.5
[19] = molecular target: T1, human PCSK9 (self-cleaved, mature, …); assay: solution equilibrium

Row | Binder | OD 450 nm [1] | OD 450 nm [2] | OD 450 nm [3] | OD diff (pH 7.4 - pH 6) [4] | % Inhibition [5] | OD 450 nm [6] | OD 450 nm [7] | % Inhibition [8] | OD 450 nm [9] | OD 450 nm [10] | OD 450 nm [11] | OD 450 nm [12] | OD diff (pH 7.4 - pH 6) [13] | OD diff (pH 7.4 - pH 6) [14] | OD 450 nm [15] | OD diff (pH 7.4 - pH 6) [16] | Kd [17] | Kd [18] | pH 5.5/7.4 KD ratio [19]
1 | B1 | 2.5 OD | 3 OD | 1.5 OD | 1.3 OD | 91% | 2.8 OD | 4.2 OD | 92% | 6 OD | 0.8 OD | 4.1 OD | 4.2 OD | 1.6 OD | 1.2 OD | 0.9 OD | 0.7 OD | – | – | –
2 | B2 | 3 OD | 2.9 OD | 2.5 OD | 1.4 OD | 89% | 2.5 OD | 3.8 OD | 91% | 3.7 OD | 1.8 OD | 3.9 OD | 3.6 OD | 1.2 OD | 0.7 OD | 1.9 OD | 0.7 OD | – | – | –
3 | B3 | – | – | – | – | – | – | – | – | – | – | – | – | – | – | – | – | 0.078 nM | 0.15 nM | 1.9
4 | B4 | 0.8 OD | 1.3 OD | 0.5 OD | 0.9 OD | 94% | 1.7 OD | 4.3 OD | 93% | 6 OD | 0.5 OD | 2.6 OD | 2.1 OD | 0.3 OD | 0.8 OD | 0.5 OD | 0 OD | – | – | –
5 | B5 | 3.4 OD | 3.8 OD | 1 OD | 1.8 OD | 62% | 4.2 OD | 3.6 OD | 77% | 3.8 OD | 1.6 OD | 6 OD | 6 OD | 1.5 OD | 2.2 OD | 2 OD | -0.6 OD | – | – | –
